According to US12458688B2, “Epitopes” (Scancell Limited, priority 2018, dated 2025):
Where no end group is shown, it is not given here. [ ]: non-standard residue; d: D form. hCit = NC(=O)NCCCC[C@H](N)C(=O)O

What was measured:
HLA-DP4 = molecular target: T1, HLA-DP4 (Homo sapiens, UniProt P04440+P20036); assay: DP4 competition assay with biotinylated Hep B peptide; settings: inhibition of biotinylated Hep B binding to HLA-DP4; 5 fold excess test peptide, equal amount for unlabelled Hep B
T1 sequence (P20036 29-260): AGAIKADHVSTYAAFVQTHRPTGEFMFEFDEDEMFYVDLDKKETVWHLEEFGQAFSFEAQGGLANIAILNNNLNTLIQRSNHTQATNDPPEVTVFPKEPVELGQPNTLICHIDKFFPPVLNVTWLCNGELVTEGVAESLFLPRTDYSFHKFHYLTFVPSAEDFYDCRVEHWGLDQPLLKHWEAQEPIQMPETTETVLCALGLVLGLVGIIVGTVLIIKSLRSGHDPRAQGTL
T1 sequence (P04440 30-258): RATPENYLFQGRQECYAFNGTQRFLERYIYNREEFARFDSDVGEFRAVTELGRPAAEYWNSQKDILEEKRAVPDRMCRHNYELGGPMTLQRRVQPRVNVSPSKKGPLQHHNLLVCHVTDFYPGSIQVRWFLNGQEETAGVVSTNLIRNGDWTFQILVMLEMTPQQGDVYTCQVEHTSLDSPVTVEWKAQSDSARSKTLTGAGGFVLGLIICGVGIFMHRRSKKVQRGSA
Procedure: 2×T175 gave 2.5×10^7 B16 HHDII/DP4 (B16F1 β2M H2Ab1 dKO A35 HHDII/DP4 H7/2E9/F9 p14) cells. This was enough for 5 preps using the following protocol with Mem-PER™ Plus Membrane Protein Extraction Kit (thermo-scientific cat #89842).
5×10^6 cells were resuspended in the growth media by scraping the cells off the surface of the plate with a cell scraper and then centrifuged at 300 g for 5 mins. The cell pellet was washed with 3 ml of Cell Wash Solution and centrifuged at 300 g for 5 mins. The supernatant was removed and discarded. The cells were resuspended in 1.5 ml of Cell Wash Solution and transfer to a 2 ml centrifuge tube and centrifuged at 300 g for 5 mins. The supernatant was discarded. 0.75 ml of permeabilization buffer was added to the cell pellet and vortexed briefly to obtain a homogeneous cell suspension and incubated for 10 mins at 4° C. with constant mixing. The permeabilized cells were centrifuge for 15 mins at 16,000g before carefully removing the supernatant containing cytosolic proteins and transfering to a new tube. 0.5 ml of solubilization buffer was added to the pellet and resuspend prior to incubating at 4° C. for 30 minutes with constant mixing prior to centrifugation at 16,000g for 15 mins at 4° C. The supernatant containing solubilized membrane and membrane-associated proteins was transfered to a new tube. Aliquots were frozen at −80° C. for future use. 12.5 μl Halt™ Protease and Phosphatase Inhibitor Cocktail, EDTA-free (100X) thermo-scientific (Catalog number 78445) was added prior to freezing.
High binding plates were coated with streptavidin (Sigma S4762 at 1 mg/ml) 1/500 in PBS and incubated overnight at 4° C. The plates were blocked with 1% BSA in PBS for 4 hrs at room temp and washed 3×PBS/0.5% Tweenx. 450 μl of cell prep lysate (B16F1 B16 HHDII/DP4 H7/2E9/F9) was mixed with 50 μg test peptide (see below) or 10 μg of unlabelled Hep B peptide for 30 mins. 10 μg biotinylated Hep B peptide was added & incubated for 4 hrs at 37° C.:
Lysate/peptide mix was added to the plates at 100 μl/well and incubated for 4 hrs at room temperature. Plates were washed 3× with PBS/0.5% Tween. 100 μl per well of Leinco anti-Human HLA-DP4 clone B7/21 #H260 1 mg/ml at 1/500 dilution in 1% BSA/PBS was added and incubated for 1 hr at room temperature prior to washing 3× PBS/0.5% Tween. Goat anti-mouse lgG3-HRP at 0.5 mg/ml 1/500 100 μl per well (Invitrogen #M32607) diluted in 1% BSA/PBS) was added for 1 hr at room temperature prior to washing and adding 150 μl of TMB substrate to each well. The reaction was stopped with 50 μl of 2N H2SO4 and plates read plate at 450 nm.
To ensure that the biotinylation of Hep B had not interfered with its binding, HLA-DP4 was incubated with equal amounts of biotinylated and unlabelled Hep B peptide. Unlabelled peptide competed equally reducing binding by 47% (FIG. 53b).
The biotinylated HepB peptide was then incubated with a 5 fold excess of the unlabelled homocitrulline peptides. All peptides inhibited the binding of biotinylated Hep B to HLA-DP4 but to varying levels (FIG. 53c-e).

HLA-HHDII/DR1 mice = assay: Ex vivo IFNγ ELISpot after peptide immunisation, HHDII/DR1 mice; format: in vivo, mouse
Procedure: (§1) C57BL/6 mice (Charles River, UK), HLA-DR4 mice (Model #4149, Taconic, USA), HLA-A2/DR1 (HHDII/DR1, Pasteur Institute), HLA-A2.1+/+HLA-DP4+/+hCD4+/+ (HLA-HHDII/DP4) transgenic mice (EM: 02221, European Mouse Mutant Archive) described in patent WO2013/017545 A1 (EMMA repository, France) were used, aged between 8 and 12 weeks. Peptides were dissolved in PBS to 1 mg/ml and then emulsified (a series of dilutions) with CpG ODN 1826 and MPLA 6 μg/mouse of each (Invivogen, UK). Peptides (25 μg/mouse) were injected subcutaneously at the base of the tail. Mice were immunised at days 1, 7 and 14 for peptide immunisation. Spleens were removed for analysis at day 21 unless stated otherwise.
(§2) ELISpot assays were performed using murine IFNγ, IL-17 and IL-10 capture and detection reagents according to the manufacturer's instructions (Mabtech, Sweden). In brief, anti-IFNγ, IL-17 and IL-10 specific antibodies were coated onto wells of 96-well Immobilin-P plate. Synthetic peptides (at various concentrations) and 5×10^5 per well splenocytes were added to wells of the plate in quadruplicate Tumour target cells were added where relevant at 5×10^4/well in triplicate and plates incubated for 40 hrs at 37° C. After incubation, captured IFNγ, IL-10 and IL-17 were detected by biotinylated anti-IFNγ, IL-10 and IL-17 antibodies and developed with a streptavidin alkaline phosphatase and chromogenic substrate. Lipopolysaccharide (LPS; 5 μg/ml) was used as a positive control. For MHC blocking studies, anti-CD4 blocking antibody (GK1.5) or anti-CD4 blocking antibody (RPA-T4) for HHDII/DP4 mice which express human CD4 and anti-CD8 blocking antibody (2.43) from Bioxcell were used at 20 μg/ml. Spots were analysed and counted using an automated plate reader (Cellular Technologies Ltd).
Screening was performed to identify potential homocitrullinated vimentin epitopes in mice. Mice were immunised with pools of homocitrullinated peptides. […] Each pool was administered as three immunisations containing 20 μg of each peptide and CpG/MPLA as an adjuvant on day 1, 8 and 15. On day 21 the mice were culled and the immune responses to each peptide within the immunising pool were assessed by ex vivo ELISpot. Given that different mouse strains have different MHC repertoires a number of strains were used for screening. Peptide responses were assessed in transgenic strains expressing human DR4 or HHDII/DR1 in a C57BL/6 background (see methods). […]
The five selected homocitrullinated Cyk8 peptides were also screened in HHDII/DR1 transgenic mice. […] Response to Cyk8 112Hcit peptide in the HHDII/DR1 mice was lost in the presence of CD8 blocking antibody but less effect of the CD4 blocking antibody was seen (FIG. 12b). […] Responses to homocitrullinated Cyk8 peptides show both CD4 and CD8 mediated responses.

B16F1 HHDII/DR1 tumours = assay: Tumour therapy, B16F1 HHDII/DR1 tumour in HHDII/DR1 mice; format: in vivo, mouse; settings: peptide with CpG/MPLA days 4, 11, 18
From the text: To determine if the epitopes that stimulate T cell responses are presented on MHC-II within the tumour environment, our homocitrullinated peptides were checked for tumour therapy in B16 tumour models. Mice were implanted with tumour cells on day 1 and then immunised with peptides and CpG/MPLA on days 4, 11 and 18.
HHDII/DR1 (FIG. 19a) or DR4 (FIG. 19b) transgenic mice were challenged with B16F1 HHDII/DR1 or B16F1 DR4 tumours respectively prior to immunisation with vimentin 116-135Hcit peptide and tumour growth and survival were monitored.
HHDII/DR1 mice were implanted with B16HHDII/DR1 tumour cells on day 1 and then immunised with Cyk8 371Hcit, 112hcit or both peptides and CpG/MPLA on days 4, 11 and 18.

HLA-DR4 mice = assay: Ex vivo IFNγ ELISpot after peptide immunisation, HLA-DR4 mice; format: in vivo, mouse
Procedure: as §1, §2
(§3) Screening was performed to identify potential homocitrullinated vimentin epitopes in mice. Mice were immunised with pools of homocitrullinated peptides. […] Each pool was administered as three immunisations containing 20 μg of each peptide and CpG/MPLA as an adjuvant on day 1, 8 and 15. On day 21 the mice were culled and the immune responses to each peptide within the immunising pool were assessed by ex vivo ELISpot. Given that different mouse strains have different MHC repertoires a number of strains were used for screening. Peptide responses were assessed in transgenic strains expressing human DR4 or HHDII/DR1 in a C57BL/6 background (see methods).

HLA transgenic mice = assay: T cell response to Hcit peptides in HLA transgenic mice (screening, ex vivo ELISpot); set-up: species or system mouse; settings: yes/no; Hcit peptide with CpG/MPLA
Procedure: as §1, §2, §3
(§4) Screening was performed to identify potential homocitrullinated ALDOA epitopes in transgenic HHDII/DP4 and HHDII/DR1 mice. Mice were immunised with pools of human homocitrullinated peptides. […] Each pool was administered as three immunisations containing 20 μg of each peptide and CpG/MPLA as an adjuvant. After 21 days the mice were culled and the immune responses to each peptide within the immunising pool were assessed by ex vivo ELISpot in HHDII/DP4 (FIG. 4b) and HHDII/DR1 mice (FIG. 4d).
as §4, with “Using this combination of predictions, 5 CyK8 peptides containing homocitrulline were synthesised (Table 4). Screening” for “Screening”, “Cyk8” for “ALDOA”, “HHDII/DP4.” for “HHDII/DP4 and HHDII/DR1 mice.”, “10a).” for “4b) and HHDII/DR1 mice (FIG. 4d).”

HLA-DP4 (human) = assay: DP4 competition ELISA; competitor biotinylated Hep B peptide; 5 fold excess of unlabelled peptide
[1] = 3 immunisations with CpG/MPLA, day 21

NYIDKVRFLEQQNKILLAEL [Vim 116-135 WT, unmodified wild type vimentin 116-135 peptide, reference compound]
% inhibition (HLA-DP4): 48%
IFNγ ELISpot response (HLA-HHDII/DR1 mice; [1]): failed to induce any responses
anti-tumour response / survival vs control (B16F1 HHDII/DR1 tumours): did not show a significant anti-tumour response
IFNγ ELISpot response (HLA-DR4 mice; [1]): failed to induce any responses

KVRFLEQQN-Hcit-LLAE [Vimentin 120-134 Hcit]
cross reactivity of vimentin 116-135 Hcit response to shorter Hcit peptide (HLA-HHDII/DR1 mice): Cross reactivity was seen
cross reactivity of vimentin 116-135 Hcit response to shorter Hcit peptide (HLA-DR4 mice): Cross reactivity was seen

EAEEWY-Hcit-S-Hcit-FADLSEAAN [Vimentin 286-303 Hcit]
T cell response (HLA transgenic mice): no

hcit-CPLL-hcit-PWALTFSYGRALQ ([hCit]CPLL[hCit]PWALTFSYGRALQ) [Aldolase A 289-307 Hcit]
% inhibition (HLA-DP4): 45%
T cell response (HLA transgenic mice): no

LSDHHVYLEGTLL-hcit-PNMVT (LSDHHVYLEGTLL[hCit]PNMVT) [Aldolase A 217-235 Hcit]
% inhibition (HLA-DP4): 84%
T cell response (HLA transgenic mice): no

QIDVDVS-Hcit-PDLTAALRDVRQQ [Vimentin 255-275 Hcit]
T cell response (HLA transgenic mice): no

LPLVDTHS-Hcit-RTLL-Hcit-TVETRDGQV [Vimentin 431-454 Hcit]
T cell response (HLA transgenic mice): no

B1: Vimentin 116-135 Hcit (peptide)
peptide: NYID[hCit]VRFLEQQN[hCit]ILLAEL
% inhibition (HLA-DP4 (human)): 44%

B2: Cytokeratin 8 112-131 Hcit (peptide)
peptide: LEQQN[hCit]MLET[hCit]WSLLQQQ[hCit]T
% inhibition (HLA-DP4 (human)): 64%

B3: Aldolase A 217-235 Hcit (peptide)
peptide: LSDHHVYLEGTLL[hCit]PNMVT
% inhibition (HLA-DP4 (human)): 84%

B4: Aldolase A 140-157 Hcit (peptide)
peptide: [hCit]DGADFA[hCit]WRCVL[hCit]IGEH
% inhibition (HLA-DP4 (human)): 76%

B5: Cytokeratin 8 101-120 Hcit (peptide)
peptide: KFASFID[hCit]VRFLEQQN[hCit]MLE
% inhibition (HLA-DP4 (human)): 71%

B6: Cytokeratin 8 381-399 Hcit (peptide)
peptide: [hCit]LALDIEIATYR[hCit]LLEGEE
% inhibition (HLA-DP4 (human)): 60%

B7: Aldolase A 74-93 Hcit (peptide)
peptide: IGGVILFHETLYQ[hCit]ADDGRP
% inhibition (HLA-DP4 (human)): 69%
